US9512178B2, “Neurogenic brain-derived neurotrophic factor peptides” (Research Foundation for Mental Hygiene, Inc., priority 2012, dated 2016)

Legend:
TrkB receptor = biological target: T1, TrkB receptor (Mus musculus, UniProt P15209); assay: TrkB phosphorylation (Tyr 706) and TrkB level in primary E18 hippocampal cells, with or without K252a; assay type: cell-based; conditions: 20 ng/ml
T1 construct: endogenous in cells; host or cells: primary hippocampal neurons from embryonic day 18 C57BL/6 mice
T1 sequence (P15209 32-821): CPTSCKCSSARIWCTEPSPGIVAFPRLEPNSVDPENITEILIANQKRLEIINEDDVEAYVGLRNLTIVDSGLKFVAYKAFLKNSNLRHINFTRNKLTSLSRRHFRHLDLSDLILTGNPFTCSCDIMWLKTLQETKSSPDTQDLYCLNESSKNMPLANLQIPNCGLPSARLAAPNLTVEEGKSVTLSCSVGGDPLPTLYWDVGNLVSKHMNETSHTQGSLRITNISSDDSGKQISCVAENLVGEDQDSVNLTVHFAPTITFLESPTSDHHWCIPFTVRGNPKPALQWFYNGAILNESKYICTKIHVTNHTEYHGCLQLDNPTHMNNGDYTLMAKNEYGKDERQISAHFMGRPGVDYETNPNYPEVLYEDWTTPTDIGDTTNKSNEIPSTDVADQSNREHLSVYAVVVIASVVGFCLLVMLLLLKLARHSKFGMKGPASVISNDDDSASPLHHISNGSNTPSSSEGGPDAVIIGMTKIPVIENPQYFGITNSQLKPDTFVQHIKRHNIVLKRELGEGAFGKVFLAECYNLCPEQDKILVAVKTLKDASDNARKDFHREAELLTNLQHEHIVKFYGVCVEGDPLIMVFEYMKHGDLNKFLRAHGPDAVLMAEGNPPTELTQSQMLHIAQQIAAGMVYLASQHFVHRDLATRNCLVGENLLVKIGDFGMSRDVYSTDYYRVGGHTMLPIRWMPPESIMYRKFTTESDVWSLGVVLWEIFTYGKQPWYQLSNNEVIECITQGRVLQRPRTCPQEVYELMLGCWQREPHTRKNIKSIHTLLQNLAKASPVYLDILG
Description: Peptides were dissolved in water in serial dilutions of 10 mM, 1 mM, 100 μM and 10 μM from which the necessary amount was added directly to the culture medium to a final concentration of 0.05 μM, 1 μM, or 10 μM. The BDNF (Peprotech, NJ, USA) was used as a reference in concentrations of 20 ng/ml (0.79 nM) and 100 ng/ml (3.95 nM). Cycloheximide (CHX) (Sigma-Aldrich, St Louis, Mo., USA) was used for blocking protein synthesis. CHX original stock was 100 mg/ml (355.4 mM) in DMSO; from a second stock of 35.54 mM in DMSO, the dilutions were made to the final concentrations of 100 μM. The K252a (CALBIOCHEM/EMD) was used to inhibit the TrkB Receptor. From a stock of 100 μM in DMSO, K252a was diluted to a final working concentration of 200 nM. The E18 primary hippocampal cells were pre-treated with CHX or K252a 1 h prior to the addition of the peptides or BDNF and a time course of these treatments for 15 min, 60 min and 2 days was studied.
Following treatment in 6-well plates, cells were washed 2× in glucose buffered saline, GBS (5.4 mM KCl, 138 mM NaCl, 22 mM glucose, and 2 mM Na—KPO pH 7.2), and then lysed by 5 min incubation on ice in 100 or 150 μl of ice-cold RIPA buffer (PBS, 1% w/v NP-40 from Fisher Scientific, 0.1% w/v SDS, and 0.5% w/v sodium desoxycholate) containing 1 mM AEBSF (Gold Biotechnology, St. Louis, Mo., USA), 10 μg/ml aprotinin (Sigma-Aldrich, St. Louis, Mo., USA), and 20 μg/ml of leupeptin and pepstatin (US Biochemicals, Cleveland, Ohio, USA), and phosphatase inhibitors: NaF, Na orthovanadate, (3-glycerophosphate, and microcystein (Sigma-Aldrich, St. Louis, Mo., USA). Extracts were prepared by collecting and pooling a minimum of 2 wells by scraping, and lysates were centrifuged at 20,000×g for 10 min at 4° C. Protein concentration of each cell lysate was determined using the BCA kit (Thermo Scientific, Rockford, Ill., USA). The lysates (7.5-20 μg total protein) were separated on 10% SDS-PAGE gels (except for BDNF where 12% gels were employed) and transferred to 0.45 μm PVDF membrane (Pall, Pensacola, Fla., USA) for probing with antibodies as noted. Blots were blocked for 1 hr at 37° C. in 1×TBST (0.05% Tween 20 in TBS) containing 5% w/v blotting grade dry milk (Bio-rad, Hercules, Calif., USA), incubated in primary antibody overnight in blocking buffer at 4° C., washed 3×10 min in TBST at room temperature, followed by incubation with secondary antibody, i.e., peroxidase-conjugated anti-mouse or anti rabbit IgG (Jackson ImmunoResearch Laboratories, West Grove, Pa., USA) diluted in blocking buffer. Blots were washed 3×10 min in TBST and immunoreactive protein bands were visualized with enhanced chemiluminescence (ECL) reagents (Pierce, Rockford, Ill., USA). The ECL films of the blots were scanned and analyzed using Multi Gauge software version 3.0 (Fujifilm, Tokyo, Japan).
The following primary antibodies were used: rabbit polyclonal anti-NFM (1:1000; Chemicon/Millipore, Billerica, Mass., USA); mouse monoclonal anti-NeuN, clone A60 (1:500; Millipore, Billerica, Mass., USA); rabbit polyclonal anti-Tuj-1, (3—III-tubulin (Covance; 1:800, Emeryville, Calif., USA); mouse monoclonal SMI 52 to the adult isoforms of MAP-2, MAP2a,b (1:1000; Covance, Emeryvilly, Calif., USA); rabbit polyclonal anti-Synapsin I (1:2000; Stressgen, Farmingdale, N.Y., USA); rabbit monoclonal anti-PSD95 (1:1000; Cell signaling, Danvers, Mass., USA); anti tau 92e (1:10000); mouse monoclonal anti-BDNF (1:1000; Calbiochem, Gibbstown, N.J., USA); rabbit polyclonal anti-TrkB (total) (1:500; Santa Cruz Biotechnology, Santa Cruz, Calif., USA); rabbit polyclonal anti-pTrkB (Tyr706) (1:400; Santa Cruz Biotechnology, Santa Cruz, Calif., USA), TrkC (1:1000; Cruz Biotechnology, Santa Cruz, Calif., USA); and pTrkY490 (1:500; Upstate USA Inc., Charlottesville, Va., USA). For loading control, the blots were developed with rabbit polyclonal antibody to GAPDH (1:2000; Santa Cruz Biotechnology, Santa Cruz, Calif., USA). […]

TrkC = biological target: T2, TrkC (Homo sapiens, UniProt Q16288); assay: Trk phosphorylation and TrkC expression in TrkC stably-expressing NIH-3T3 cells; assay type: cell-based; conditions: 20 ng/mL
T2 construct: expressed in transfected cells; host or cells: NIH-3T3 fibroblasts
T2 sequence (Q16288 32-839, species assumed): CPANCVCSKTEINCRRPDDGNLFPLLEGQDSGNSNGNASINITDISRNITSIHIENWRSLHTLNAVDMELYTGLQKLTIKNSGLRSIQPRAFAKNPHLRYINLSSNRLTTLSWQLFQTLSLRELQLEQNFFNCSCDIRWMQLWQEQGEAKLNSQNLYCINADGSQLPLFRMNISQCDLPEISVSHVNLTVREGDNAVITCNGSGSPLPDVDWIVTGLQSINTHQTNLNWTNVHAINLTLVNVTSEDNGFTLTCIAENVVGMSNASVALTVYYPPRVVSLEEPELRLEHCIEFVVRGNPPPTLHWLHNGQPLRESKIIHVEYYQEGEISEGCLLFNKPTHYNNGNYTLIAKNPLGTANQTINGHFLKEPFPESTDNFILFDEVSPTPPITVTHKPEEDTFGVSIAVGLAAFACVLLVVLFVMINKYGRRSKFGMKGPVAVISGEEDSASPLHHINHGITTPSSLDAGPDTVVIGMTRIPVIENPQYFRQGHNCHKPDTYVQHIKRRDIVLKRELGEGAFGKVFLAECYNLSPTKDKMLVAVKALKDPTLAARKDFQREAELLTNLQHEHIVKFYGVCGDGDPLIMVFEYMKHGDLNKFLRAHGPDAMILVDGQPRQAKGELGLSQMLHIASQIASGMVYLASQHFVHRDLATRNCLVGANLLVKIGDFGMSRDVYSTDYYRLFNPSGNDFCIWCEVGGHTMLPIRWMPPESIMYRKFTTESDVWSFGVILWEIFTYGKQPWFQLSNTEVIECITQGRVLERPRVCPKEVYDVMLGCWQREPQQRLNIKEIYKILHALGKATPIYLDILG

[1] = in vivo; cited from earlier work
[2] = direct administration into the CNS; cited from earlier work

increase in the phosphorylation of the TrkB receptor (TrkB receptor; 5 min, without K252a): significant | activation of TrkB (pTrkB Tyr 706 normalized to total TrkB) (TrkB receptor; 1 h): strong and significant activation
B1: BDNF: Brain derived neurotrophic factor (Peprotech), used as a reference at 20 ng/ml and 100 ng/ml (protein, UniProt P23560 19-247, looked up)
Neurotrophic factor BDNF …: APMKEANIRGQGGLAYPGVRTHGTLESVNGPKAGSRGLTSLADTFEHVIEELLDEDQKVRPNEENNKDADLYTSRVMLSSQVPLEPPLLFLLEEYKNYLDAANMSMRVRRHSDPARRGELSVCDSISEWVTAADKKTAVDMSGGTVTVLEKVPVSKGQLKQYFYETKCNPMGYTKEGCRGIDKRHWNSQCRTTQSYVRALTMDSKKRIGWRFIRIDTSCVCTLTIKRGR
activation of TrkC receptor (TrkC): neither the peptides nor BDNF were able to activate this receptor | expression of TrkC (TrkC): neither BDNF (20 ng/mL) nor peptides B-5 (1 μM) and B-3 (1 μM) were able to modify the expression of TrkC | blood brain barrier (BBB) and intraparenchymal penetrations [1]: poor | plasma half-life [1]: less than 1 min | undesirable effects [2]: weight loss, dysaesthesias (impairment of sensation), and in some cases, pain
